Reference: PMC13345634, “Dynamic assembly of malate dehydrogenase–citrate synthase multienzyme complex in the mitochondria” (eLife, 2026)

What was measured:
[1] = target: T1, recombinant CIT1 (without the mitochondrial targeting signal, C-terminal 6x His tag) (S. cerevisiae, UniProt P00890 38-479); assay: MST; fluorescently labeled MDH1 as the target, CIT1 as the ligand (two-fold serial dilution of 80 µM, 16 concentrations); Monolith NT.115, room temperature; 50 mM Tris, 150 mM NaCl, 10 mM MgCl2, 5 mM DTT, 0.05% Tween-20; pH 6.0; details: both partners purified
T1 construct: By the primers and the NdeI/XhoI sites of pET21b the chain should begin with an added Met and carry LE before the His6; also called recombinant yeast CIT1; pET-cit1; source: E. coli BL21 (DE3), pET21b, purified (Ni-NTA His SpinTrap columns)
T1 sequence (looked up): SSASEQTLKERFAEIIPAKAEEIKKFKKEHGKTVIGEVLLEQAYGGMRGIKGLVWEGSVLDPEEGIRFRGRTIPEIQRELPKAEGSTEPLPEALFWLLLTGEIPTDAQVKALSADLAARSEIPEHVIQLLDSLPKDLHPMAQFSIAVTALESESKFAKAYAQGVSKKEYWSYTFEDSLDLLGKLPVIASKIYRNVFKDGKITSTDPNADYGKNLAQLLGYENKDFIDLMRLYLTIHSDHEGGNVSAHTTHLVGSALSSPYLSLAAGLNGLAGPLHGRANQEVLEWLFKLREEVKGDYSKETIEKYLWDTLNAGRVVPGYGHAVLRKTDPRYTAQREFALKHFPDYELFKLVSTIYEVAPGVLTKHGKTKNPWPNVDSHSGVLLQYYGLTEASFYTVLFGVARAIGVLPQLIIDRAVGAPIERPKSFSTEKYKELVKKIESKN

[2] = target: T1, recombinant CIT1 (without the …); assay: MST; fluorescently labeled MDH1 as the target, CIT1 as the ligand (two-fold serial dilution of 80 µM, 16 concentrations); Monolith NT.115, room temperature; 50 mM Tris, 150 mM NaCl, 10 mM MgCl2, 5 mM DTT, 0.05% Tween-20; pH 7.2; details: both partners purified
[3] = target: T1, recombinant CIT1 (without the …); assay: MST; fluorescently labeled MDH1 as the target, CIT1 as the ligand (two-fold serial dilution of 80 µM, 16 concentrations); Monolith NT.115, room temperature; 50 mM Tris, 150 mM NaCl, 10 mM MgCl2, 5 mM DTT, 0.05% Tween-20; pH 6.4; details: both partners purified
[4] = target: T2, recombinant MDH1 (without the mitochondrial targeting signal, C-terminal 6x His tag), fluorescently labeled (S. cerevisiae, UniProt P17505 18-334, fluorescent label (Protein Labeling Kit RED-NHS 2nd Generation)); assay: MST; 10 mM malate
T2 chain: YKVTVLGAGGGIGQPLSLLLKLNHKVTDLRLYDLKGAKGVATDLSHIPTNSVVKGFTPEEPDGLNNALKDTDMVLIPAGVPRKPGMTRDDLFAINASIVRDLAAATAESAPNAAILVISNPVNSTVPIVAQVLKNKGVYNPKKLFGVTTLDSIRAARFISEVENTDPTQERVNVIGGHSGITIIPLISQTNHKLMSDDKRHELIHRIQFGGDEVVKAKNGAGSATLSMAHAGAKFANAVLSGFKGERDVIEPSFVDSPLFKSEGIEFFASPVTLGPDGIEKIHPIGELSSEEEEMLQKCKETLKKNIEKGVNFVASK

[5] = target: T2, recombinant MDH1 (without the …); assay: MST; 10 mM fumarate
[6] = target: T2, recombinant MDH1 (without the …); assay: MST; pH 6.8
[7] = target: T2, recombinant MDH1 (without the …); assay: MST; control (no metabolite)

B1: recombinant MDH1 (without the mitochondrial targeting signal, C-terminal 6x His tag), fluorescently labeled (enzyme, S. cerevisiae, UniProt P17505 18-334, looked up)
chain: T2 chain
modifications: fluorescent label (Protein Labeling Kit RED-NHS 2nd Generation)
notes: By the primers and the NdeI/XhoI sites of pET21b the chain should begin with an added Met and carry LE before the His6; also called recombinant yeast MDH1; labeled MDH1; source: E. coli BL21 (DE3), pET21b, purified (Ni-NTA His SpinTrap columns)
- Kd [1]: 33 nM
- Kd [2]: 3480 nM
- Kd [3]: 223 nM

B2: recombinant CIT1 (without the mitochondrial targeting signal, C-terminal 6x His tag) (enzyme)
chain: T1 sequence (looked up)
- Kd [4]: 367 nM
- Kd [5]: 288 nM
- Kd [6]: 2720 nM
- Kd [7]: 6070 nM
